This experiment deals with ACE2-Fc (UniProt Q9BYF1). Description: SPR. A general note: Surface plasmon resonance follows binding to a sensor surface in real time, without labels.

One substance from publication doi:10.1101/2022.05.21.492554 can be followed below.

One may read the Kd as the equilibrium constant for the complex coming apart. A lower Kd goes with higher affinity. By koff is commonly meant the rate constant with which the complex falls apart.

Chain of ACE2-Fc (Q9BYF1 18-740): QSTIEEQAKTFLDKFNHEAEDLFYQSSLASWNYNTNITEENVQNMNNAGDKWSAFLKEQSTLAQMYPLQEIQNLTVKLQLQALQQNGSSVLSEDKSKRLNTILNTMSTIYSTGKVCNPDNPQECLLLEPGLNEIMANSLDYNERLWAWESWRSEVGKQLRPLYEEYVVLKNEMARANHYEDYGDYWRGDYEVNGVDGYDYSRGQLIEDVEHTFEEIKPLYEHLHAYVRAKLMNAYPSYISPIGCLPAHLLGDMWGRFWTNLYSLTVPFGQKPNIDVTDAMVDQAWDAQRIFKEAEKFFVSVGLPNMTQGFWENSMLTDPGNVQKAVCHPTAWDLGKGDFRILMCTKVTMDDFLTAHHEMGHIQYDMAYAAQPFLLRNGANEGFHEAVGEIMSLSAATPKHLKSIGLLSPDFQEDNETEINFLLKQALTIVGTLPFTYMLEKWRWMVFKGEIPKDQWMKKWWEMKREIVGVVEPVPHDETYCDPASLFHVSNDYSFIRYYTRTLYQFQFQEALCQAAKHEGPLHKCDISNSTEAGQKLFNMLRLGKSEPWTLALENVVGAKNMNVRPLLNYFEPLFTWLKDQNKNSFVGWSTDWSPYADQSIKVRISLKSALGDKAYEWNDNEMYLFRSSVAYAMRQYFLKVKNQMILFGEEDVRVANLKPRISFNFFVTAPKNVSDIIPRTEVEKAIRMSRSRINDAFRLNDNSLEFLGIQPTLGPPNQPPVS

In the case of Wuhan RBD, the Kd was 7.3 nM and the koff was found to be 0.0051 s⁻¹.
